Measurements from patent US20150368327A1 (YOKOHAMA CITY UNIVERSITY, published 2015).

T1: mouse Sema 3A protein (mouse, UniProt O08665 21-772, limits assumed)
T1 construct: Produced from mouse Sema 3A protein expressing cells; also called Mouse Sema 3A antigen
T1 sequence (looked up): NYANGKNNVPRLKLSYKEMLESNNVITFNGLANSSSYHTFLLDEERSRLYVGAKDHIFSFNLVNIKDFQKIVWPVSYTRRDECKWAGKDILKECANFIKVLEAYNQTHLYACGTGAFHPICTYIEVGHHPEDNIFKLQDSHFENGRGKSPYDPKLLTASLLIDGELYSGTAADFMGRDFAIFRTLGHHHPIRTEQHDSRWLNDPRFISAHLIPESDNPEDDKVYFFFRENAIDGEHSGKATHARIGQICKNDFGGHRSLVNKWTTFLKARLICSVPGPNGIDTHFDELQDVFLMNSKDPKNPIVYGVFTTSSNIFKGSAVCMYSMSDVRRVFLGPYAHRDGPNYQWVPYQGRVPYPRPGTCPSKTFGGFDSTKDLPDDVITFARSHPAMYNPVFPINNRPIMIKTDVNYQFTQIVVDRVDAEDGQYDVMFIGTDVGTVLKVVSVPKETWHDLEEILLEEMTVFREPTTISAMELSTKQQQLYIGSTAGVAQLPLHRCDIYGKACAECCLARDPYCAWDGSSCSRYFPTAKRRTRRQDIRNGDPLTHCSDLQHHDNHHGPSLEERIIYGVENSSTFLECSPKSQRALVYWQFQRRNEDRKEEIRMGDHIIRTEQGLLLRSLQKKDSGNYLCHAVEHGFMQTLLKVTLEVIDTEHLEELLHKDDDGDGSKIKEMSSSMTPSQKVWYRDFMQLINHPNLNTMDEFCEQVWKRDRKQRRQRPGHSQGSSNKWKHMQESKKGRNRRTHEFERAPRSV


Target: T1, mouse Sema 3A protein
Assay: direct solid phase ELISA screening with mouse Sema 3A as antigen
Method: A direct solid phase ELISA was carried out according to the following process. In Day 6 after the step 2-2), 2.5 μg/mL of mouse Sema 3A protein was dispensed into a 384 well Maxisorp (Nunc) by 20 μL each and left to stand overnight. Ovalbumin (OA) and rabbit IgG (rIgG) were immobilized in the plate as negative controls in similar manner in order to examine the specificity of antibodies. On the next day, the content in the plate was removed and 45 μL of blocking solution (PBS buffer containing 1% BSA) was added thereto, followed by incubation at room temperature for one hour. The plate was washed five times with 120μL/well of ELISA washing buffer (PBS containing 0.05 wt % Tween 20), to which were added culture supernatants derived from the colony obtained by selection in the step 2-2) by 25 μL/well and then incubated at room temperature for one hour. The plate was washed five times with 120 μL/well of ELISA washing solution and then to which was added 25 μL of diluent in which a secondary antibody was diluted 2000 times with a blocking buffer and incubated at room temperature for 45 minutes. Anti-chicken IgM-HRP (Bethyl Laboratories, Inc.) was used as a secondary antibody. […] Subsequently, the reaction was quenched with 25 μL of 1N sulfuric acid to determine the absorbance at 450 nm.

binding result	Binder
binds	Anti-Sema 3A avian antibody (clone No. 240-40 strain-derived) (antibody, V domains shown, Avian (chicken) IgM) VH: AVTLDESGGGLQTPGGALSLVCKASGFTFSSYDMNWVRQAPGKGLEWVAGIYSGSSTYYGAAVKGRATISRDNGQSTLRLQLNNLRAEDTGIYYCAKSAIPVNSAGSIDAWGHGTEVIVSS VL: ALTQPASVSANPGETVKITCSGGGSYGGSYYYSWHQQKSPGSALVTVIYYNNKRPSDIPSRFSGSLSGSTNTLTITGVRADDEAVYFCGSADTSGTAFGAGTTLTVL
binds	Anti-Sema 3A avian antibody (clone No. 255-72 strain-derived) (antibody, V domains shown, Avian (chicken) IgM) VH: AVTLDESGGGLQTPGGALSLVCKASGFTFSSYEMQWVRQAPGKGLEWVAGIYSGSTWYGAAVKGRATISRDNGQSTVRLQLNNLRAEDTGTYYCAKSGIGFNSAGSIDAWGHGTEVIVSS VL: ALTQPASVSANPGETVKITCSGGGSYGGSYYYSWHQQKSPGSALVTVIYYNNKRPSDIPSRFSGSLSGSTNTLTITGVRADDEAVYFCGSADNSGSAFGAGTTLTVL
